Experiment: yeast display, Sf9 membrane polyspecificity reagent, FACS + sequencing; frameworks hold sequencing errors
Procedure, shortened: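 Nanobodies came from a synthetic yeast display library in Saccharomyces cerevisiae BJ5465, induced with galactose for 36–48 hours and stained for 1 hour at 4 °C with 10% biotinylated, detergent-solubilized Sf9 membrane reagent. Cells were enriched on streptavidin microbeads and then FACS-sorted, with low and high (top ~1%) gates set on anti-HA fluorescence for expression and streptavidin fluorescence for reagent binding. Each polyreactivity label reflects the gate a clone came from. Genes were amplified by colony PCR, sequenced by MiSeq 2 × 250 and filtered by CDR length.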

| Sequence | polyreactivity (PSR sort gate) |
| --- | --- |
| QVQLVESGGGLVQAGGSLRLSCAASGRIFYYNAMGWYRPAPGKERELVAAITYIGGNTHYADSVKGRFTISRDNAKYTVYLQMNSLKPEDTAVYYCARGTVLGFYYEYGYWGQGTQVTVSS | low polyreactivity |
| QVQLVESGGRLVQAGGSLRLSCAASGSIFTFYALGWYRQAPGKESELVAAISYRGGSTYYADSVRGRFTISRDNAKNTVYLQMNRLKPEDTAVYFCAAGRFPVFFQGYRMEYWGQGTQVTVSS | low polyreactivity |
| QVQLVESGGGLVQAGGSLRLSCAASGSTFLFYAMGWYRQAPGKEREFVDAISWSGGSTFYADSVKGRFTISRYNAKNTVYLQMNSLKPEDTAVYYCAARQDGYSGRKLYYLGQGTQVTVSS | low polyreactivity |
| QVQLVESGGCLVQAGGSLRLSCAASGSIFGWYDMGWYRQARGYERELVAAMTSDGSTNYADSVKGRFTISRDNAKNTVYLQKNSLKPEDTAVYYCAQDGWYYYYPYDYWGQGTQVTVSS | low polyreactivity |
| QVHLVESGVGLGQAGGSLRLSCAASGSIFYSNAMGWYRPAPGKERELVATITWSGGRTYYADSVKGRFTISRDYAKNTFYLQMHSLKPEDTAVYYCAAVSIYWGHGTQVTVSS | low polyreactivity |
| QVQLVESGGGLVQAGGSLRLSCAASGRTFRYYSMGWYRQAPGKERELVAAISSRGNTYYADSVKGRFTISRDNAKNTVYLQMNSLKPEDTAVYYCAARNVVTGYRYDYWGHGTQVTVSS | high polyreactivity |
| QVQLVESGGGLVQAGGSLRLSCAASGRIFYPYAMVWYRQAPGKERELVAGISFRDGSRYYADSVKGRFTISRDNAKNTVYLQMNSLKPEDTAFYYSAAVGQTHTTSPLSTKFDYWGQGTQVTVSS | low polyreactivity |
| QVQLVESGGGLVQAGGSLRLSCAASGSIFVVYAMGWSREGPGKERELVAAISWGIGSTYYADSVKGRFTISRDNAKNTVYLQPNSLKPEDTAVYYCAADTDIVLYDYWGQGTQVTVSS | low polyreactivity |
| QVQLVESGGGLVQAGRSLRLSCAASGFIFRYYAMGWYRQAPGKETELVAAIRGGGSTYYADSVKGRFTISRDNAKNTVYLQMKSLNPEDTAVYYCAVRWVSRFGISSYDYWGQGTQVTVSS | high polyreactivity |
| QVHLVESGGGLVLAGGSLRLSCAASGIIFTYAMGWYRHAPGNERELVAAIDWRGGRTYYADSLKGRFTISRDNAKNTFYLQMNSLKPEDTAVYYCAPRLPGGTYYWGQGTQVTESS | high polyreactivity |
| QVQLVESGGGLVQAGGSLRLSCAASGSIIYLYTMGWYRQAPGKERELVAAISSSGSSTYYADSVKGRFTISRDNAKNTVYLQMNSLKPEYTSVYYCAARYSYDSYYWGKGTQVTVSS | high polyreactivity |
| QVQLVESGGGLVQAGGSLRLSCAASGSIIVRYAMGWDRQAPGKERELVAAISKSGGSTHYADSVKGRFTISRDNAKNTVYLQMNSLKPEDTAVYYCAAVYYYRFTTYYYWGQGTQVTVSS | high polyreactivity |
| QVQLVESGGGLVQAGGSLRLSCAASGGIFWANAMGWHRQAPRKERELVATIHTIGDGTNYADSVKGRFTISRDNAKNTVYLQMNSLKPEDTAVYYCAAPYYYFAVYYGYIFEYDYWGQGTQVTVSS | low polyreactivity |
| QVQLVESGGGVVQAGGSLRLSCAASGNIFFGNAMGWYRQAPGKERELVAAITKRGGSTYYADSVKGRFTISRDNAKNTVYLQMNSLKPEDTAVYYCAAVSYSKRTWSMNYWGQGTQVTVSS | high polyreactivity |
| QVQLVESGGGLVRAGGSLRLSCAASGSTFPFYAMGWYRQAPGKERELVAAITSGGSTYADSVKGRFTISRDNAKNTVYFQMNSLKAEVTAVYYCAASWPRWWRFGYWGQGTQVTVSS | low polyreactivity |
| QVQLVESGGGLVQAGGSLRFSCAASGRTFNWYAMGWYRQAPGKERELVAAISSRGGSTYADSVKGRFTISRDNAKNTVYLQMNSLKPEDTAVYYCAARHHGTKYDYWGQGTQVTVSS | low polyreactivity |
| QVQLVESGGGLVQAGGSLRLSCAASGSIFHRNAMGWYRQAPGKERELVATISSSTGSTNYADSVKGRFTISRDNAKNTVYLQMNSLKPEDTAVYYCAAAPHRHSWYYTRHPYFGMDYWGQGTQVTVSS | low polyreactivity |
| QVQLVESGGGLVQAGGSLRLSCAASGSIIGGYAMGWYRQAPGKERELVAAITRSGGRTYYADSVKGRFTISRDNAKNTVYLQMNSLKPEDTAVYYCNADRRRRFGYWGQGTQVTVSS | high polyreactivity |
| QVQLVESGGGLVHAAGSLRLSCAASGRTFRYNTMGWYRQASGKESELVARITRSGGSTYYADSVKGRFTISRDNAKNTVYLQMNSLKPEDTAVYYCAAVPILVYRWFQYYTGDYDYWGQGTQVTVSS | low polyreactivity |
| QVQLVESGGGLVQAGGSLRLRGAASGSTFGPNAMGWYRPAPGKEREFVASISWRGGRTYYADSVKGRFTISRDNAKNTVYLQMNSLNPEDTAVYYCAAVSYPAVYGFDYWGQGTQVTVSS | high polyreactivity |
| QVQLVESGGGLVQAGGSIRLSCAASGIIFLGNAMGWYRQAPGIERELVAAITASGTTSYYADSVKGRFTISRDNAKNTVSLQMNSLKPEDTAVDYCAAQSTWYDFYYWVQGTQVTVSS | low polyreactivity |
| QVQLLESGGGLVQAGGSLRLTCAASGSIFFYYAMAWYRQAPGKEMEFVAGITYSGGITYYADSVKGRFTISRDNEKNTVYLQMNSLKPEDTAVYYCDYGGGVYQYGYWGQGTLVTVSS | low polyreactivity |

| Sequence | polyreactivity (PSR sort gate) |
| --- | --- |
| QVQLVESGGGLVQAGGSLRLSCAASGRTFYYYVMGWYRQAPGKERELVAGITWSGGGTYYADSVKGRFTISRYNAKNTVYLQMNRLKPEDTAVYYCAKKDTLSNRWYGYWGEGTQVTVSS | high polyreactivity |
| QVQLVESGGGLVQAGGSLRLSCAASGSTFIGYAMGWYRKAPGKERELVAAITGGGRTNYADSVKGRFTISRDNAKNTVYLQMNSLKPEDTAVYYCAARGVTRGYAKPYYSRGDYWGQGTQVTVSS | low polyreactivity |
| QDQLVESGGGLVQAGGSLRLSCAASCFTSLIYAMGWYRQAPGKERELVASITWGGGSTYADSVKGRFTISRDNAKNTVSLLMNSLKPEDTAVYYCASLYWWYPFNYWGQGTQVTVSS | low polyreactivity |
| QVQLVESGGGLVQAGGSLRLSCAASGITFSYALGWYRQAPGKERELVAGITTSGGSTYADSVKGRFTISRDNAKNTVYLQMNSLKPEDTAVYYCAADRSAVQFSAFLEYDYWGQGSQVTVSS | low polyreactivity |
| QVQLVESGGGLVQAGGSLRLSCAASGRTFQINGMGWYRQAPGKERELVAAITRSGGITYYADSVKGRFTISRDNAKNTVYLQMNSLKPEDTAVYYCNADSYAYYSWYDYWGQGTQVTVSS | low polyreactivity |
| QVQLVESGGGLVQAGGSLRLSCADSGSTSYRYAMGRYRQSPGKERELVAVITSGSSTYYADSVKGRFTISRDNAKNTDYLQINSLKPEDTAVYYCAVGRTYRRYSAASYNYWGQGTQVTVSS | high polyreactivity |
| QVQLGESGGGLVQAGGSLRLSGAASGRTFNDYTMGWYRPAPGKERELVAAISSSGVLTYYADSVKGRFTISRDNAKYTVYLQMNSLKPEDTAVDYAKRAGYDRRWTYDYRGQGTQVTVSS | high polyreactivity |
| QVQLVESGGGLVQAGGSLRLSCAASGSIFGANAMGWYRKAPGKERELVAAISTRGGRTYYADSVKGRFTISRDNAKNTVYLQMNSLKPEDTAVYYCATSGGRPYKYEYWGQGTQVTVSS | high polyreactivity |
| QVQLVDSAGGLVHAGGSLRLSCAASGLTFYSNTMGWYRPPPGKERELVAGISWGGDTTYYADSVKGRFTISRDNAKNTVYLQMNSLKPEDTAVYYCAADRSYWRHRYSYDYWGQGTQVTVSS | low polyreactivity |
| QVQLVESGGGLVQAGGSLRLSCAASGSTFFYNAMGWYRQAPGKERELVASINDRAGRTYYADSVKGRFTISRDNAKNTVYLQMNSLKPEDTAVYYCAAEPWYKFDYDYWGQGTQVTVSS | low polyreactivity |
| QVQLVESGGGLVQAGGSLRLSCAASGGTFRNYAMGWYRQAPGKERELVAAITTGTITNYADSVKGRFTISRDNAKNTVYLQLNSLKPEDTAVYYCNAGAFYSDPYVYWGQGNQVTVSS | low polyreactivity |
| QVQLVESGGGLVQAGGSLRLSCAASGSTFDSYAMGWYRQAPGKERELVAAITTTGGSTFYADSVKGRFTISRDNAKNTVYLQMNSLKPEDTAVYYCADDDGWQEFEYWGQGTQVTVSS | low polyreactivity |
| QVQLVESGGGLVQAGGSLRLSCAASGSTFDTNAMGWYRQAPGKERELVATITSIGGSTYADSVKGRFTISRDNAKNTVYLQMNSLKPEDTAVYYCATDYVEIDYDYDYWGQGTQVTLSS | low polyreactivity |
| QVQLVESGGGLDQAGGSLRLSCAASGSTFVYNVMGWYRQAPGKERELVAAITSGVRTYYADSEKGRFTISRDNAKNTGYLQMNSLKPEDTAVYYCATGWRNAKYYYWGQGTQVNVSS | high polyreactivity |
| QVQLLESGGGLVQAGGSLRLSCASSGYTIIQYAMGWYRQAPGKERELVAGNTWSGGSTYADSVKGRFTISRDNAKNTVYLQMKSLKQEDTAVYYCAADQEPGKYRFPYARKNNYWGQGTQVTVSS | low polyreactivity |
| QVQLVESGGGLVQAGGSLRLSCAASGSIFSYYAMGWYRQAPGKERELVSANTSGDGTNYADSVKGRFTISRDNAKNTVYLQMNILKPDDTAVYYCAADAVDSYWREDYWGQGTQVTVSS | low polyreactivity |
| QVQLVESGGGLVQAGGSLRLSCAASGSTFGSYAMGWYRQAPGKERELVAAITQIGGSTYYADSVKGRFTISRDKAKNTVYLQMNSLKPEDTAVYYCAARYRYPGYYYWGQGTQVTVSS | high polyreactivity |
| QVQLVESGGGLLQAGGSLRLSCSATGSLFEGNGMGWYRQAPGKERELVASITRSGGSTYYADSVKGRFTISRDNAKNTVYLQINSLIPEDTAVYYCAAYPVRYYNQYDYWGLGTQVTVSS | low polyreactivity |
| QVQLVESGGGLVQAGGSLRLSCAASGSTFYRNAMGWYRQAPGKERELVAVISISDGSTYADSVKGRFTISRDNAKNTVYLQMNSLKPEDTAVYYCAKVLNPLDYYDFDYWGQGTQVTVSS | low polyreactivity |
| QVQLVESGGGLVQAGGSLRLSCAASGSTFEYYAMGWYRQAPGKERELLATISIDGRTNYADSVKGRFTISRDNAKNTVYLQLYSVKPEDTAVYYCGARPYWRHRYDYWGQGTQVTVSS | low polyreactivity |
| QVQLVESGGGLVQAGGRLRLSFAASGSIFVFYVMGWYRQAHGKERELVAAISNSGSSTYYADSVKGRFTISRDNAKNTVYLQINSLKPEDTAVYYCAAEYKIPVGFDYWGQGTQVTVSS | low polyreactivity |
